From publication PMC13061601, “CLCC1 promotes hepatic neutral lipid flux and nuclear pore complex assembly” (Nature, 2026)

Molecular target: the molecule itself
Assay: migration on a gel, blot (Supplementary Fig. 8c); without reducing agent; sample and gel conditions not shown

B1: CLCC1 (natural protein, human, UniProt Q96S66 19-551, looked up)
chain: HDDDWIDPTDMLNYDAASGTMRKSQAKYGISGEKDVSPDLSCADEISECYHKLDSLTYKIDECEKKKREDYESQSNPVFRRYLNKILIEAGKLGLPDENKGDMHYDAEIILKRETLLEIQKFLNGEDWKPGALDDALSDILINFKFHDFETWKWRFEDSFGVDPYNVLMVLLCLLCIVVLVATELWTYVRWYTQLRRVLIISFLFSLGWNWMYLYKLAFAQHQAEVAKMEPLNNVCAKKMDWTGSIWEWFRSSWTYKDDPCQKYYELLLVNPIWLVPPTKALAVTFTTFVTEPLKHIGKGTGEFIKALMKEIPALLHLPVLIIMALAILSFCYGAGKSVHVLRHIGGPESEPPQALRPRDRRRQEEIDYRPDGGAGDADFHYRGQMGPTEQGPYAKTYEGRREILRERDVDLRFQTGNKSPEVLRAFDVPDAEAREHPTVVPSHKSPVLDTKPKETGGILGEGTPKESSTESSQSAKPVSGQDTSGNTEGSPAAEKAQLKSEAAGSPDQGSTYSPARGVAGPRGQDPVSSPCG
notes: CLCC1, human
- stoichiometry N: 2
